The source of these data is article PMC4363599, “A Purification Method for a Molecular Complex in Which a Scaffold Molecule Is Fully Loaded with Heterogeneous Molecules”.

In data set [1] the target is Alexa Fluor 633-labelled L7Ae (UniProt O29494 1-119). The data set can be described thus: pull-down; fBCD35g resin removes most free L7Ae; SPR as in ref 9 (L7Ae chip, RNA analyte); resin and plate assays in assay buffer at room temperature; buffer composition, salt and pH not given in the material. Particulars: protein: recombinant; tags: His tag; Alexa Fluor 633 by amine coupling; label: resin-immobilized.

The target of data set [2] is L7Ae (UniProt O29494 1-119). The data set can be described thus: SPR; no signal up to 2 uM RNA; SPR as in ref 9 (L7Ae chip, RNA analyte); resin and plate assays in assay buffer at room temperature; buffer composition, salt and pH not given in the material. Particulars: protein: recombinant; tags: His tag (pET28b-His-L7Ae-cmyc-His named as the L7Ae expression plasmid); immobilized on SPR chip. On the technique in general: In SPR one partner is held on a chip, and binding of the other changes the refractive index at the surface.
Sequence of L7Ae (O29494 whole entry): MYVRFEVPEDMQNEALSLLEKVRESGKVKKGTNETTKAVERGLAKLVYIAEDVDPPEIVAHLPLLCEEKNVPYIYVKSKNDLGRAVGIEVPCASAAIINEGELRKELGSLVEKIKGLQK

Sequence of Alexa Fluor 633-labelled L7Ae (O29494 whole entry): as above

GGUUCAGCUGAGGCGAAAGCCGGUGAUGCUGAAUC (XNA, 2'-fluoro on all pyrimidines) [fBCD35g immobilized on resin]: in data set [1], the binding result is on record as “binds”.
GGUUCAGCUGACUCGAAAGGGCGUGAUGCUGAAUC (XNA, 2'-fluoro on all pyrimidines) [BCD35 2'-fPy-RNA]: the binding result in data set [2] is listed as “no binding”.
